Measurements as given in patent publication US20060134746, “Adding photoregulated amino acids to the genetic code” (The Scripps Research Institute, published 2006).

Key:
[1] = test system: CAP70TAG azobenzyl-Phe mutant, trans (before irradiation) I70(azobenzyl-Phe) (Escherichia coli); assay: EMSA; conditions: 20 uM cAMP, 25 C; approximate value; 4-fold lower than wt; same value recovered after switching back with light >=420 nm
[2] = test system: CAP70TAG azobenzyl-Phe mutant, irradiated at 334 nm (about 50% cis) I70(azobenzyl-Phe) (Escherichia coli); assay: EMSA; conditions: 20 uM cAMP, 25 C; after 334 nm irradiation 40 min at 0 C, photostationary state about 50% cis
[3] = test system: CAP (catabolite activator protein) wild-type (Escherichia coli); assay: EMSA; conditions: 20 uM cAMP, 10 mM Tris pH 7.5, 50 mM NaCl, 1 mM MgCl2, 25 C; approximate value
[4] = molecular target: E. coli leucyl-tRNA synthetase (ecLRS) wild-type (Escherichia coli, UniProt P07813 SEQ:1-860); assay: cell_activity; amber suppression of GAL4 (2 TAG) in S. cerevisiae, beta-galactosidase; printed as 104-fold increase (10^4) over either component alone
Sequence of E. coli leucyl-tRNA synthetase (ecLRS) wild-type (P07813 whole entry, the tested form may be a part): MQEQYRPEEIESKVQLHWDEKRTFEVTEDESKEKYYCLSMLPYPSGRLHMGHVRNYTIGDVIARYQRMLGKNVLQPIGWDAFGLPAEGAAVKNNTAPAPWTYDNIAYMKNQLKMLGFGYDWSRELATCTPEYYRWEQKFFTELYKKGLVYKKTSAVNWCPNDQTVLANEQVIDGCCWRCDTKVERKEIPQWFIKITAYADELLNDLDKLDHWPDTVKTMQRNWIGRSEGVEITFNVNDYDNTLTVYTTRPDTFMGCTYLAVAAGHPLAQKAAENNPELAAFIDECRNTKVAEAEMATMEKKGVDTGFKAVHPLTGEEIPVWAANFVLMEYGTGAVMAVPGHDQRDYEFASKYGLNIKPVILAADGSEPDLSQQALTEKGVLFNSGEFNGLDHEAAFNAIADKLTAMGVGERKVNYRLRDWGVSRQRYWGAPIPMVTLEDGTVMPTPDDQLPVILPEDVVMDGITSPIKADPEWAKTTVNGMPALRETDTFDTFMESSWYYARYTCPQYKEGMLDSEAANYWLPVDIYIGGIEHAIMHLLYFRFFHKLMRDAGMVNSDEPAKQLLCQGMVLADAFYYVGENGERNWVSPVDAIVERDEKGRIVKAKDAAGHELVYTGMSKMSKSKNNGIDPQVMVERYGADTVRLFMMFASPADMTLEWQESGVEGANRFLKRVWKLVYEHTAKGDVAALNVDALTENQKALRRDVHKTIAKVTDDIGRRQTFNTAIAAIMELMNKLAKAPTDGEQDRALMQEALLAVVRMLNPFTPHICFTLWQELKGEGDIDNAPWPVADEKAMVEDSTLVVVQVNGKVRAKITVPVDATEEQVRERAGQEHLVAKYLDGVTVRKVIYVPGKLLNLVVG
Excerpt: The orthogonality of the E. coli leucyl suppressor tRNACUA (Leu5CUA) (FIG. 1A), which has U35 and A37 in the anticodon loop, and the corresponding ecLRS was examined in vivo in a selection strain of S. cerevisiae [MaV203:pGADGAL4(2 TAG)]. See Chin, et al., Science, 2003, 301:964-7. This strain harbors the transcriptional activator GAL4 with amber codons at two permissive sites (Thr44 and Arg110). Efficient suppression at both sites leads to expression of three reporter genes: lacZ, his3, and ura3. In the presence of either Leu5CUA or ecLRS alone, no significant β-galactosidase activity was detected above the residual activity in lysates from […] cells. […] See ibid.

Row | Molecule | Ka [1] [M⁻¹] | Ka [2] [M⁻¹] | Ka [3] [M⁻¹] | activity [4] [fold]
1 | 118 bp lac promoter fragment with primary CAP site | 4e+06 | 1e+06 | 1.6e+07 | –
2 | Leu5CUA amber suppressor tRNA (ssRNA) RNA: GCCCGGAUGGUGGAAUCGGUAGACACAAGGGAUUCUAAAUCCCUCGGCGUUCGCGCUGUGCGGGUUCAAGUCCCGCUCCGGGUACCA | – | – | – | > 10000
